# Measured values as given in patent US20190314417A1, “IMMUNOSUPPRESSIVE MESENCHYMAL CELLS AND METHODS FOR FORMING SAME” (The Trustees of Columbia University In The City of New York, priority 2016, published 2019).
# Counter-ions that a name gives are not always drawn.
# Assays:
# Format in all cases: cell-based, human
# GLUT1 = test: Hypoxia mimetic titration: GLUT1 in MSCs; conditions: different concentrations, FIG. 24
# Procedure: Studies were carried out to determine the effect of hypoxia mimicking agents CoCl2 and DFO on MSCs (FIG. 24).
# T-cells = test: Lactic acid titration: intracellular pH and scatter of T-cells (pHrodo Red AM); conditions: fresh complete AIM-V media, 30 minutes
# [1] = system: CD4+ and CD8+ T-cell division; test: Lactic acid titration: T-cell division in response to Concanavalin A; conditions: ConA 5 μg/mL, Day 3
# Procedure: PBMCs were thawed, as previously described, and stained in HEPES buffered saline at 37° C. for 30 minutes with pHrodo® Red AM (Thermo Fisher) as per manufacturer's instructions (1000× dilution of dye). […] Cells were resuspended in these new media and incubated at 37° C. for 30 minutes. Immediately prior to each flow cytometry reading, each sample was diluted 1:9 with BD Stain Buffer and mixed well. This neutralized external pH and diluted media components without permitting time for intracellular lactate to be exported. […] Cells were plated in 96-well U-bottom plates at 200 000 cells per well. ConA was added to be 5 μg/mL, and PBMCs were analyzed by flow cytometry on Day 3.
# IDO [2] = test: Onset kinetics of IDO expression in MSCs exposed to IFN-γ; conditions: 10 ng/mL IFN-γ
# Procedure: (§1) Titration studies were carried out to determine whether IFN-γ at different concentrations or for different time periods had differential effects on MSC expression of IDO and/or PD-L1 (FIGS. 22 & 23). […] Thus, the IFN-γ dose could be used in a range of 0.1 ng/mL to 100 ng/mL for future animal and human studies, while still reproducing the same beneficial phenotype, with the lower end of that range more likely to mimic physiologic conditions in humans. […] Therefore, priming of MSCs may be carried out for less than 48 hours to achieve biological effects.
# PD-L1 = test: Onset kinetics of PD-L1 expression in MSCs exposed to IFN-γ; conditions: 10 ng/mL IFN-γ
# Procedure: as §1
# IDO [3] = test: IFN-γ titration: IDO expression in MSCs by flow cytometry; conditions: 48 hours of exposure
# Procedure: as §1
molecule,measurement,setting,value
"[Cl][Co][Cl] [CoCl2, cobalt chloride]",GLUT1 upregulation in MSCs,GLUT1,able to upregulate GLUT 1
"CC(=O)N(O)CCCCCNC(=O)CCC(=O)N(O)CCCCCNC(=O)CCC(=O)N(O)CCCCCN [DFO, deferoxamine mesylate/desferrioxamine]",GLUT1 upregulation in MSCs,GLUT1,able to upregulate GLUT 1
"C[C@H](O)C(=O)O [lactic acid, L-lactic acid]",extracellular lactic acid level at which drop in T-cell pHi started to become pronounced,T-cells,15 mM
same,T-cell division at lactate 15 mM,[1]; lactate concentration of 15 mM,almost completely eliminated
same,"T-cell division, % of the maximum rate",[1]; lactic acid concentration not given,30-45%
"IFN-γ: pro-inflammatory cytokine (Peprotech) used to prime MSCs (protein, UniProt P01579 24-161, looked up) Interferon gamma: QDPYVKEAENLKKYFNAGHSDVADNGTLFLGILKNWKEESDRKIMQSQIVSFYFKLFKNFKDDQSIQKSVETIKEDMNVKFFNSNKKKRDDFEKLTNYSVTDLNVQRKAIHELIQVMAELSPAAKTGKRKRSQMLFRG",exposure time after which IDO is already upregulated,IDO [2],6 h
same,exposure time required for maximum IDO expression,IDO [2],48 h
same,exposure time after which PD-L1 is already upregulated,PD-L1,6 h
same,exposure time required for maximum PD-L1 expression,PD-L1,48 h
same,IDO induction at 0.1 ng/mL,IDO [3]; 0.1 ng/mL,significant induction
same,IFN-γ concentration required for maximum IDO induction,IDO [3],at least 1 ng/mL
